Columns and labels:
Experiment in all cases: ITC; peptide (FEN1 800 uM, pol δ p66 550 uM, RNaseH2B 750 uM) with 33 to 38 uM individual PCNA (not trimeric rings); 25 °C
Conditions in all cases: both partners purified
[1] = molecular target: T1, Proliferating cell nuclear antigen, wild type (human, UniProt P12004 1-261)
T1 construct: PCNA, human; untagged, expressed from the pET3c vector; Homotrimeric ring; also called PCNA-WT; PCNA; source: E. coli BLR-DE3, purified (S and Q HiTrap columns, Sephacryl-200 gel filtration)
T1 sequence (P12004 whole entry): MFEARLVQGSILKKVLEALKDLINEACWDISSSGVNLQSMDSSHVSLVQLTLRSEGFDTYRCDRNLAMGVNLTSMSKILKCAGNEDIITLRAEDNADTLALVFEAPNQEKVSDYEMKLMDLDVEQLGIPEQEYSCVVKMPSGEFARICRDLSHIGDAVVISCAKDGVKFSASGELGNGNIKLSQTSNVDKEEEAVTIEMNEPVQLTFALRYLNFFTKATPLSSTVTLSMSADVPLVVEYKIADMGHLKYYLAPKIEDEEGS

[2] = molecular target: T2, Proliferating cell nuclear antigen C148S variant (human, UniProt P12004 1-261, C148S)
T2 construct: PCNA, human, patient-derived variant p.Cys148Ser; untagged, made by site-directed mutagenesis of PCNA-WT in pET3c; Disease-associated natural allele (PARD); Homotrimeric ring; also called PCNA-C148S; C148S-PCNA; source: E. coli BLR-DE3, purified (S and Q HiTrap columns, Sephacryl-200 gel filtration)
T2 sequence (P12004 whole entry C148S): as the sequence (P12004 whole entry) above, with C148S counted along it

[3] = molecular target: T3, Proliferating cell nuclear antigen S228I variant (human, UniProt P12004 1-261, S228I)
T3 construct: PCNA, human, patient-derived variant p.Ser228Ile; expressed from the pET3c vector; Disease-associated natural allele (PARD); also called PCNA-S228I; source: E. coli BLR-DE3, purified (S and Q HiTrap columns, Sephacryl-200 gel filtration)
T3 sequence (P12004 whole entry S228I): as the sequence (P12004 whole entry) above, with S228I counted along it

B1: RNaseH2B PIP-box peptide (peptide)
peptide: DKSGMKSIDTFFGVKNKKKIGKV
notes: PIP-box peptide of RNaseH2B; free C-terminus (-OH); printed with a blank after SID; source: synthetic peptide (21st Century Biochemicals)
In the case of B1, the Kd [1] is reported as 9.7 ± 0.3 µM and the Kd [2] is reported as 7.8 ± 0.01 µM.

B2: DNA polymerase delta p66 PIP-box peptide (peptide)
peptide: KANRQVSITGFFQRK
notes: PIP-box peptide of the p66 subunit of DNA polymerase delta; also called pol δ p66; pol δ; source: synthetic peptide (21st Century Biochemicals)
B2 showed a Kd [1] of 3 ± 0.16 µM, a Kd [2] of 2.8 ± 0.33 µM and a Kd [3] of 4 ± 0.14 µM.

B3: FEN1 PIP-box peptide (peptide)
peptide: STQGRLDDFFKVTGSL
notes: PIP-box peptide of Flap endonuclease 1 (FEN1); free C-terminus (-OH); source: synthetic peptide (21st Century Biochemicals)
B3 gave a Kd [1] of 11 ± 2 µM and a Kd [2] of 11 ± 2 µM.

From paper PMC10165274 (The Journal of Biological Chemistry, 2023)
